# Results: the RNAGym collection of RNA variant scans (doi:10.7554/elife.90254)
# B1: LINE1-full (parent)
# chain: UACGUAGGUGGUUUUCCCCUGAUAGUGCUAAGGGGGCCUGGAAGUUUGGACUGGGCAGAGCUCAACACAGCGUGGCAAAGUGGCUGUGGCUAGACUGCCUCUCUGGAUUCCUCGUCACUCAGCAGGGCAUCUCUGAGAGAAAUGCC
# Variants of: B1
# Test: self-cleavage, relative activity (ratio to wild type); higher = more cleavage; in vitro, sequencing; the parent is a self-cleaving ribozyme
row,Variant,self-cleavage
1,U9C C118U,0.92
2,U9C G72A,1.34
3,U9C U15C,1.28
4,U9C U15A,0.5
5,U9C U15G,1.09
6,G8C A22G,0
7,U9C U81A,1.95
8,U9C U81C,1.21
9,U9C G86A,0.16
10,U9C C120U,1.3
11,G8U C128U,1.14
12,G7A A57U,0.07
13,U9C G49U,1.08
14,G8A C61U,0.06
15,U9A C120U,1.12
16,U9C C19U,1.65
17,U9C C19A,1.55
18,U9G U47C,0.54
19,U9C U62C,0.18
20,U9C U143A,1.28
21,U9C A57U,0.24
22,U9C U52G,1.69
23,G7A U14C,0.88
24,G8A U12C,1.17

row,Variant,self-cleavage
1,U9G U14C,0.68
2,U9A A43G,1.1
3,U9A A43U,0.61
4,G8C A141U,1.33
5,U9C U26A,1.14
6,G8A A124G,1.04
7,G8C U45C,2.04
8,G8A U87C,0.19
9,G8A G125U,1.53
10,U9A A138U,1.01
11,U9C U13A,1.11
12,U9C U13C,1.19
13,U9A A50U,0.45
14,U9A A50G,1.03
15,U9C A64C,0.35
16,U9C A64U,0.6
17,U9C G44A,0.69
18,U9A A79G,1.01
19,U9A A79U,1.59
20,U9A C38A,1.26
21,G8A G82A,1.71
22,U9C U96G,0
23,G8U U14C,2.04
24,A6U U119A,1.74

row,Variant,self-cleavage
1,U9A C110U,1.06
2,U9G A107U,0.46
3,U9G A107G,1.13
4,G8A C120U,2.87
5,U9C G75A,1.4
6,U9C U29C,1.72
7,G8A C113A,1.31
8,U9C C131U,1.6
9,G7C A142C,1.1
10,U9A U29C,1.19
11,U9A U29A,0.79
12,U9C U23A,1.22
13,U9C G58A,0.04
14,G8U U81A,2.37
15,U9C G36C,2.16
16,G8A A57U,0.16
17,G7A U134C,1.17
18,U9A U100A,0.72
19,U9C G122C,0
20,G8U U109C,0.67
21,U9C G21U,1.37
22,U9A A107G,1.02
23,U9A C131U,0.79
24,U9A G54A,0.65

row,Variant,self-cleavage
1,U9G U85C,0.38
2,U9A U91A,0.53
3,U9A U91C,0.36
4,G7A A30G,0.84
5,U9A U87C,0.19
6,U9A U87A,0.15
7,G8A U47C,1.82
8,U9A G60U,0
9,U9A G60A,0.1
10,U9G A138U,1.51
11,U9G A65G,0.25
12,U9C G82A,2.23
13,G8A A30G,0.67
14,U9A U73A,1.29
15,U9A U73C,0.94
16,U9G A136G,0.68
17,G7A A129G,1.85
18,G7A A129C,1.07
19,G8A U109C,1.21
20,U9A C103U,0.84
21,U9C G83U,0.94
22,U9C C116G,1.21
23,U9C A129G,1.66
24,U9C A129U,1.27

row,Variant,self-cleavage
1,U9C A129C,1.24
2,U9A A92G,0.15
3,G8U U39A,1.12
4,U9A U45G,1.05
5,U9C G35U,1.13
6,U9C A50G,1
7,U9C A50U,1.38
8,U9C G80A,1.65
9,U9C A30U,0.87
10,U9C A30G,1.21
11,G7U A79G,0.87
12,U9A A124G,1.02
13,U9A A124C,1.74
14,A6U U87C,0.16
15,A6U U87A,0.15
16,G7C U91C,0
17,U9C A79U,1.66
18,U9C A79G,1.35
19,U9C A79C,1.2
20,U9C A42C,0.88
21,U9A A64G,0.26
22,G7U U46C,0.47
23,A6U U104G,0.48
24,A6U U104A,1.16

row,Variant,self-cleavage
1,U9G U12A,0.16
2,G7A U73A,1.31
3,G8A A69C,0.04
4,U9C C95U,0.19
5,U9C U112G,2.63
6,G7A A79G,0.61
7,G8A U115C,1.33
8,U9C G10A,0.86
9,G8U C145U,2.38
10,U9C A65G,0.16
11,U9C U109A,1.37
12,U9C U109C,0.99
13,G7A U112C,1.22
14,G7C U85A,0.2
15,U9A C98U,0.28
16,G7A A78G,1.12
17,G8A U9C,0.63
18,U9A A140U,1.08
19,G8U G35A,1.41
20,G7A G8C,0
21,G7U G11C,1.02
22,U9G A117G,1.31
23,U9G A117U,1.07
24,G7A U132C,1.2

row,Variant,self-cleavage
1,G8A C37A,0.87
2,A6U U143G,1.12
3,G8A G135A,1.23
4,U9G A77G,1.55
5,G8A G70A,0.17
6,G7A A94U,0
7,G7A A94G,0.14
8,G7U U39A,1.67
9,U9G G74A,0.88
10,G7A U104C,1.15
11,G7A U104A,1.11
12,G7U U14C,1.39
13,G8U U119A,1.51
14,U9C U108C,1.54
15,G8U U115C,1.93
16,U9A C19U,0.71
17,U9A C116U,0.95
18,G7A U85C,0.11
19,U9C G127U,1.45
20,U9A A121U,2.38
21,U9A A121G,1.56
22,U9C A43U,0.77
23,G8A A22G,1
